Laboratory results: article PMC9482650, “Quantitative fragmentomics allow affinity mapping of interactomes” (Nature Communications, 2022)

Experiments:
Assay in all cases: holdup assay
Parameters in all cases: key: below the threshold = too weak to quantify, mostly under pKd 3.1 to 4
DLG4_3, P78352 = biological target: DLG4_3, P78352
SCRIB_3, Q14160 = biological target: SCRIB_3, Q14160
FRMPD3, Q5JV73 = biological target: FRMPD3, Q5JV73
DVL3, Q92997 = biological target: T1, DVL3, Q92997
T1 sequence (Q92997 244-331, limits assumed, looked up): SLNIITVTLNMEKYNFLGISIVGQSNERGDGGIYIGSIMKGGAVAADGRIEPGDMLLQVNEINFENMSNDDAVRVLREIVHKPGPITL

MAGI2_5, Q86UL8 = biological target: MAGI2_5, Q86UL8
DFNB31_1, Q9P202 = biological target: T2, DFNB31_1, Q9P202
T2 sequence (Q9P202 135-233, limits assumed, looked up): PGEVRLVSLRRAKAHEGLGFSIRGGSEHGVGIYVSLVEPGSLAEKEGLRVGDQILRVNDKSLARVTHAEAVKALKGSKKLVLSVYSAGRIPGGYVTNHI

TIAM2, Q8IVF5 = biological target: T3, TIAM2, Q8IVF5
T3 sequence (Q8IVF5 885-986, limits assumed, looked up): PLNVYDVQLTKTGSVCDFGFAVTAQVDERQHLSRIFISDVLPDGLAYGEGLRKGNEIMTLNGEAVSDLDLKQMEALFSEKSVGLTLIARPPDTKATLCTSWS

DLG1_1, Q12959 = biological target: DLG1_1, Q12959
DLG3_3, Q92796 = biological target: T4, DLG3_3, Q92796
T4 sequence (Q92796 374-475, limits assumed, looked up): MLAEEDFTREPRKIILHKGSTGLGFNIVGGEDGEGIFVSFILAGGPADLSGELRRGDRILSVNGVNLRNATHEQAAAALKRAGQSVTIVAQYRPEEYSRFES

TJP2_1, Q9UDY2 = biological target: TJP2_1, Q9UDY2
MAGI2_3, Q86UL8 = biological target: MAGI2_3, Q86UL8
CASK, O14936 = biological target: CASK, O14936
PTPN3, P26045 = biological target: PTPN3, P26045
CARD11, Q9BXL7 = biological target: T5, CARD11, Q9BXL7
T5 sequence (Q9BXL7 662-765, limits assumed, looked up): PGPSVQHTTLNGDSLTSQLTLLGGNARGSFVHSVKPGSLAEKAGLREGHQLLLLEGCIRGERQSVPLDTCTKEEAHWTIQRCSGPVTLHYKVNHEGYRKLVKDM

PCLO, Q9Y6V0 = biological target: T6, PCLO, Q9Y6V0
T6 sequence (Q9Y6V0 4491-4600, limits assumed, looked up): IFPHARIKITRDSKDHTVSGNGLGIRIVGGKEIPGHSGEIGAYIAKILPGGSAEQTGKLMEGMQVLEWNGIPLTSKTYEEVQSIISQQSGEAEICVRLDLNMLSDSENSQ

DLG1_2, Q12959 = biological target: DLG1_2, Q12959
GRIP1_3, Q9Y3R0 = biological target: T7, GRIP1_3, Q9Y3R0
T7 sequence (Q9Y3R0 247-346, limits assumed, looked up): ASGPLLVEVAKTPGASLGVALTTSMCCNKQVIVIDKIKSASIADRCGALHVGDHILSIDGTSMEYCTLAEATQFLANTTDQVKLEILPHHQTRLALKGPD

MAGI1_2, Q96QZ7 = biological target: MAGI1_2, Q96QZ7
MAST1, Q9Y2H9 = biological target: MAST1, Q9Y2H9
RHPN1, Q8TCX5 = biological target: T8, RHPN1, Q8TCX5
T8 sequence (Q8TCX5 508-602, limits assumed, looked up): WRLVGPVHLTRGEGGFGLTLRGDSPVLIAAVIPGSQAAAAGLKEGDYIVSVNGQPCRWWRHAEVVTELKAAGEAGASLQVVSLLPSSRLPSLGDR

DFNB31_3, Q9P202 = biological target: T9, DFNB31_3, Q9P202
T9 sequence (Q9P202 811-907, limits assumed, looked up): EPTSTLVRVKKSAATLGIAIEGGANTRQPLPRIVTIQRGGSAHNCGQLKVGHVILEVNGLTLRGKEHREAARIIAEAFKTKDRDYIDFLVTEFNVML

GRID2IP_2, A4D2P6 = biological target: GRID2IP_2, A4D2P6
Inadl_6, Q8NI35 = biological target: Inadl_6, Q8NI35
NHERF2_2, Q15599 = biological target: NHERF2_2, Q15599
LNX2_3, Q8N448 = biological target: T10, LNX2_3, Q8N448
T10 sequence (Q8N448 463-564, limits assumed, looked up): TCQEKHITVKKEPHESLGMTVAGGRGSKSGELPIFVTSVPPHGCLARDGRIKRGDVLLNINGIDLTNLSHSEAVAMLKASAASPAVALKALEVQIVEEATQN

GRIP1_7, Q9Y3R0 = biological target: T11, GRIP1_7, Q9Y3R0
T11 sequence (Q9Y3R0 999-1096, limits assumed, looked up): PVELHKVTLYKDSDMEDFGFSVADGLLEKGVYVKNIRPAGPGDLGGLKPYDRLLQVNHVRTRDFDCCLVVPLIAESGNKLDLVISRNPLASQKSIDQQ

Inadl_10, Q8NI35 = biological target: Inadl_10, Q8NI35
[1] = plain residues with an end cap or a label only (N-terminal biotin on a linker: ahx)
[2] = plain residues with an end cap or a label only (N-terminal biotin on a linker: ttds)
[3] = plain residues with an end cap or a label only (N-terminal biotin on a linker: ado-ado)

MAGI2_5, Q86UL8, sequence (Q86UL8 915-1017): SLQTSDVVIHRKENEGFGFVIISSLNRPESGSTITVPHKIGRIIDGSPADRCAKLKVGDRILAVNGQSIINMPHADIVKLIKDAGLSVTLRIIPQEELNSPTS
MAST1, Q9Y2H9, sequence (Q9Y2H9 962-1065): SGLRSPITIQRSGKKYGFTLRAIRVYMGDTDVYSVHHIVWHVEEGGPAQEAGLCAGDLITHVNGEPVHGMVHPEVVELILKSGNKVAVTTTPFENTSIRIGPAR
SCRIB_3, Q14160, sequence (Q14160 999-1103): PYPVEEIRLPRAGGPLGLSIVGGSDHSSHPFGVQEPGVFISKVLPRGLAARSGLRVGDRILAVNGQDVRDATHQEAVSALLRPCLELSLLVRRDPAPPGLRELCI
Inadl_10, Q8NI35, sequence (Q8NI35 1673-1763): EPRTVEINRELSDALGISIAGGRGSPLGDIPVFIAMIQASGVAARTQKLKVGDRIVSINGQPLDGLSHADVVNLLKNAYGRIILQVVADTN
PTPN3, P26045, sequence (P26045 505-587): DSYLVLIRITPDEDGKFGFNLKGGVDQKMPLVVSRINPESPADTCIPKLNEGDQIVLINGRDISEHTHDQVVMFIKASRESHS
GRID2IP_2, A4D2P6, sequence (A4D2P6 272-370): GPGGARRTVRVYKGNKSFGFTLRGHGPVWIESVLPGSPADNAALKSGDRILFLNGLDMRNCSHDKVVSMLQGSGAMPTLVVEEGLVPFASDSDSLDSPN
CASK, O14936, sequence (O14936 487-570): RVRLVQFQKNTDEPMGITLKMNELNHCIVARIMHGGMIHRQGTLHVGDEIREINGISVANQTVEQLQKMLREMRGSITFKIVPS
NHERF2_2, Q15599, sequence (Q15599 142-238): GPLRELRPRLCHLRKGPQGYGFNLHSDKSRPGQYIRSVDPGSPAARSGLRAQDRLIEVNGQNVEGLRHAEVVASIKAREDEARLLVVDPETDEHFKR
FRMPD3, Q5JV73, sequence (Q5JV73 12-100): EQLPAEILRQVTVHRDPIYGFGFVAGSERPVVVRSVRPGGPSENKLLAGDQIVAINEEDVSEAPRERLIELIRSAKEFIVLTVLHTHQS
TJP2_1, Q9UDY2, sequence (Q9UDY2 24-128): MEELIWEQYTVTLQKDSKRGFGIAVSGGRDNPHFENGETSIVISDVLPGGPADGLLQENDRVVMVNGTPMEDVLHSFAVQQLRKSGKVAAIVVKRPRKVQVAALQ
Inadl_6, Q8NI35, sequence (Q8NI35 1058-1167): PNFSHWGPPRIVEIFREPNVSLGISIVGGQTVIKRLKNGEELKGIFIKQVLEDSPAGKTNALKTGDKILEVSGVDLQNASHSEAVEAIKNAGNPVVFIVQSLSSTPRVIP
MAGI2_3, Q86UL8, sequence (Q86UL8 600-682): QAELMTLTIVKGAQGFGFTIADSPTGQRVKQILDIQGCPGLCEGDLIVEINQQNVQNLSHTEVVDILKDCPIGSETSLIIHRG
MAGI1_2, Q96QZ7, sequence (Q96QZ7 456-580): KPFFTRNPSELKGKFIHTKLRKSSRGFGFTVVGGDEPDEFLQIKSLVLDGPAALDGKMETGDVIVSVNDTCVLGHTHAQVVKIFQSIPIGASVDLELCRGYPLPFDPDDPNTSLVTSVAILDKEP
DLG4_3, P78352, sequence (P78352 306-403): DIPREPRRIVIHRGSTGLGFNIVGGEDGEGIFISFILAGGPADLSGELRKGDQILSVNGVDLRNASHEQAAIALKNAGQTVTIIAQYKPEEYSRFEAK

## HSGSYLVTSV [APC, P25054]
DLG4_3, P78352; [1]
  pKd: 4.5
SCRIB_3, Q14160; [1]
  pKd: 4.45
FRMPD3, Q5JV73; [1]
  pKd: below the threshold
DVL3, Q92997; [1]
  pKd: below the threshold
MAGI2_5, Q86UL8; [1]
  pKd: 4.63
DFNB31_1, Q9P202; [1]
  pKd: 3.93
TIAM2, Q8IVF5; [1]
  pKd: below the threshold
DLG1_1, Q12959; [1]
  pKd: 4.6
DLG3_3, Q92796; [1]
  pKd: 4.71
TJP2_1, Q9UDY2; [1]
  pKd: below the threshold
MAGI2_3, Q86UL8; [1]
  pKd: 4.31
CASK, O14936; [1]
  pKd: below the threshold
PTPN3, P26045; [1]
  pKd: 4.64
CARD11, Q9BXL7; [1]
  pKd: below the threshold
PCLO, Q9Y6V0; [1]
  pKd: below the threshold
DLG1_2, Q12959; [1]
  pKd: 5.21
GRIP1_3, Q9Y3R0; [1]
  pKd: below the threshold
MAGI1_2, Q96QZ7; [1]
  pKd: 4.05
MAST1, Q9Y2H9; [1]
  pKd: 4.22
RHPN1, Q8TCX5; [1]
  pKd: 5.16
DFNB31_3, Q9P202; [1]
  pKd: 3.67
GRID2IP_2, A4D2P6; [1]
  pKd: 4.41
Inadl_6, Q8NI35; [1]
  pKd: 3.81
NHERF2_2, Q15599; [1]
  pKd: below the threshold
LNX2_3, Q8N448; [1]
  pKd: below the threshold
GRIP1_7, Q9Y3R0; [1]
  pKd: below the threshold
Inadl_10, Q8NI35; [1]
  pKd: 3.64

## TGDTLEKFVEGL [CBP, Q92793]
DLG4_3, P78352; [2]
  pKd: below the threshold
SCRIB_3, Q14160; [2]
  pKd: below the threshold
FRMPD3, Q5JV73; [2]
  pKd: below the threshold
DVL3, Q92997; [2]
  pKd: below the threshold
MAGI2_5, Q86UL8; [2]
  pKd: below the threshold
DFNB31_1, Q9P202; [2]
  pKd: below the threshold
TIAM2, Q8IVF5; [2]
  pKd: below the threshold
DLG1_1, Q12959; [2]
  pKd: below the threshold
DLG3_3, Q92796; [2]
  pKd: below the threshold
TJP2_1, Q9UDY2; [2]
  pKd: below the threshold
MAGI2_3, Q86UL8; [2]
  pKd: below the threshold
CASK, O14936; [2]
  pKd: below the threshold
PTPN3, P26045; [2]
  pKd: below the threshold
CARD11, Q9BXL7; [2]
  pKd: below the threshold
PCLO, Q9Y6V0; [2]
  pKd: below the threshold
DLG1_2, Q12959; [2]
  pKd: below the threshold
GRIP1_3, Q9Y3R0; [2]
  pKd: below the threshold
MAGI1_2, Q96QZ7; [2]
  pKd: below the threshold
MAST1, Q9Y2H9; [2]
  pKd: below the threshold
RHPN1, Q8TCX5; [2]
  pKd: below the threshold
DFNB31_3, Q9P202; [2]
  pKd: below the threshold
GRID2IP_2, A4D2P6; [2]
  pKd: below the threshold
Inadl_6, Q8NI35; [2]
  pKd: below the threshold
NHERF2_2, Q15599; [2]
  pKd: below the threshold
LNX2_3, Q8N448; [2]
  pKd: below the threshold
GRIP1_7, Q9Y3R0; [2]
  pKd: below the threshold
Inadl_10, Q8NI35; [2]
  pKd: below the threshold

## RGGFGRQTQI [NCBP2L, A6PVI3]
DLG4_3, P78352; [3]
  pKd: 4.17
SCRIB_3, Q14160; [3]
  pKd: 4.48
FRMPD3, Q5JV73; [3]
  pKd: below the threshold
DVL3, Q92997; [3]
  pKd: below the threshold
MAGI2_5, Q86UL8; [3]
  pKd: below the threshold
DFNB31_1, Q9P202; [3]
  pKd: 4.78
TIAM2, Q8IVF5; [3]
  pKd: 4.02
DLG1_1, Q12959; [3]
  pKd: 4.39
DLG3_3, Q92796; [3]
  pKd: 3.82
TJP2_1, Q9UDY2; [3]
  pKd: 3.88
MAGI2_3, Q86UL8; [3]
  pKd: 3.51
CASK, O14936; [3]
  pKd: below the threshold
PTPN3, P26045; [3]
  pKd: 4.49
CARD11, Q9BXL7; [3]
  pKd: below the threshold
PCLO, Q9Y6V0; [3]
  pKd: below the threshold
DLG1_2, Q12959; [3]
  pKd: 4.92
GRIP1_3, Q9Y3R0; [3]
  pKd: below the threshold
MAGI1_2, Q96QZ7; [3]
  pKd: 3.98
MAST1, Q9Y2H9; [3]
  pKd: 4.6
RHPN1, Q8TCX5; [3]
  pKd: 4.5
DFNB31_3, Q9P202; [3]
  pKd: 3.67
GRID2IP_2, A4D2P6; [3]
  pKd: 4.05
Inadl_6, Q8NI35; [3]
  pKd: below the threshold
NHERF2_2, Q15599; [3]
  pKd: below the threshold
LNX2_3, Q8N448; [3]
  pKd: below the threshold
GRIP1_7, Q9Y3R0; [3]
  pKd: below the threshold
Inadl_10, Q8NI35; [3]
  pKd: below the threshold

## DPLTPSRSQL [DGKK, Q5KSL6]
DLG4_3, P78352; [2]
  pKd: below the threshold
SCRIB_3, Q14160; [2]
  pKd: 3.5
FRMPD3, Q5JV73; [2]
  pKd: below the threshold
DVL3, Q92997; [2]
  pKd: below the threshold
MAGI2_5, Q86UL8; [2]
  pKd: below the threshold
DFNB31_1, Q9P202; [2]
  pKd: below the threshold
TIAM2, Q8IVF5; [2]
  pKd: below the threshold
DLG1_1, Q12959; [2]
  pKd: 4.01
DLG3_3, Q92796; [2]
  pKd: below the threshold
TJP2_1, Q9UDY2; [2]
  pKd: below the threshold
MAGI2_3, Q86UL8; [2]
  pKd: below the threshold
CASK, O14936; [2]
  pKd: below the threshold
PTPN3, P26045; [2]
  pKd: below the threshold
CARD11, Q9BXL7; [2]
  pKd: below the threshold
PCLO, Q9Y6V0; [2]
  pKd: below the threshold
DLG1_2, Q12959; [2]
  pKd: below the threshold
GRIP1_3, Q9Y3R0; [2]
  pKd: below the threshold
MAGI1_2, Q96QZ7; [2]
  pKd: below the threshold
MAST1, Q9Y2H9; [2]
  pKd: 4.16
RHPN1, Q8TCX5; [2]
  pKd: below the threshold
DFNB31_3, Q9P202; [2]
  pKd: below the threshold
GRID2IP_2, A4D2P6; [2]
  pKd: 4.1
Inadl_6, Q8NI35; [2]
  pKd: below the threshold
NHERF2_2, Q15599; [2]
  pKd: below the threshold
LNX2_3, Q8N448; [2]
  pKd: below the threshold
GRIP1_7, Q9Y3R0; [2]
  pKd: below the threshold
Inadl_10, Q8NI35; [2]
  pKd: below the threshold

## QKNKDKEYYV [NRXN3_rs746444206, Q9Y4C0]
DLG4_3, P78352; [3]
  pKd: below the threshold
SCRIB_3, Q14160; [3]
  pKd: below the threshold
FRMPD3, Q5JV73; [3]
  pKd: 3.9
DVL3, Q92997; [3]
  pKd: 3.85
MAGI2_5, Q86UL8; [3]
  pKd: below the threshold
DFNB31_1, Q9P202; [3]
  pKd: below the threshold
TIAM2, Q8IVF5; [3]
  pKd: 4.34
DLG1_1, Q12959; [3]
  pKd: below the threshold
DLG3_3, Q92796; [3]
  pKd: below the threshold
TJP2_1, Q9UDY2; [3]
  pKd: below the threshold
MAGI2_3, Q86UL8; [3]
  pKd: below the threshold
CASK, O14936; [3]
  pKd: 3.55
PTPN3, P26045; [3]
  pKd: 4.28
CARD11, Q9BXL7; [3]
  pKd: below the threshold
PCLO, Q9Y6V0; [3]
  pKd: below the threshold
DLG1_2, Q12959; [3]
  pKd: below the threshold
GRIP1_3, Q9Y3R0; [3]
  pKd: below the threshold
MAGI1_2, Q96QZ7; [3]
  pKd: below the threshold
MAST1, Q9Y2H9; [3]
  pKd: below the threshold
RHPN1, Q8TCX5; [3]
  pKd: below the threshold
DFNB31_3, Q9P202; [3]
  pKd: 3.82
GRID2IP_2, A4D2P6; [3]
  pKd: below the threshold
Inadl_6, Q8NI35; [3]
  pKd: below the threshold
NHERF2_2, Q15599; [3]
  pKd: below the threshold
LNX2_3, Q8N448; [3]
  pKd: below the threshold
GRIP1_7, Q9Y3R0; [3]
  pKd: 4.55
Inadl_10, Q8NI35; [3]
  pKd: below the threshold
